Data set [1] deals with CHO-S cells. The data set is described as follows: Western blot analysis of PH20 expression in media and cells after transient expression. It counts as cell-based, Chinese Hamster. As to conditions: media versus cells. Summed up: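 CHO-S cells were transiently transfected with mutant PH20-HZ24 plasmids using GeneJuice and expressed for 48-72 h at 37 °C, 5% CO2. Media and cells were harvested separately, with PI-PLC treatment used to release GPI-anchored protein. Non-reduced samples were blotted with rabbit anti-PH20 (0.5 μg/mL), and a band near 66 kDa was scored as PH20.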

Data set [2] in a line: Microtiter hyaluronidase activity assay with biotinylated-hyaluronic acid. The data set is classed as biochemical. The note with it: Table 6, 72 hour post transfection supernatant.

The results in this text go back to US9284543B2, “Neutral active soluble truncated PH20 polypeptides and uses thereof” (Halozyme, Inc., priority 2008, dated 2016).

B1: SPAM1-EEPQ: C-terminally truncated human PH20, precursor 479 aa (SEQ ID NO:21), mature 444 aa (SEQ ID NO:73) (protein, listed as Homo sapiens)
chain 1: MGVLKFKHIFFRSFVKSSGVSQIVFTFLLIPCCLTLNFRAPPVIPNVPFLWAWNAPSEFCLGKFDEPLDMSLFSFIGSPRINATGQGVTIFYVDRLGYYPYIDSITGVTVNGGIPQKISLQDHLDKAKKDITFYMPVDNLGMAVIDWEEWRPTWARNWKPKDVYKNRSIELVQQQNVQLSLTEATEKAKQEFEKAGKDFLVETIKLGKLLRPNHLWGYYLFPDCYNHHYKKPGYNGSCFNVEIKRNDDLSWLWNESTALYPSIYLNTQQSPVAATLYVRNRVREAIRVSKIPDAKSPLPVFAYTRIVFTDQVLKFLSQDELVYTFGETVALGASGIVIWGTLSIMRSMKSCLLLDNYMETILNPYIINVTLAAKMCSQVLCQEQGVCIRKNWNSSDYLHLNPDNFAIQLEKGGKFTVRGKPTLEDLEQFSEKFYCSCYSTLSCKEKADVKDTDAVDVCIADGVCIDAFLKPPMETEEPQ
chain 2: MGVLKFKHIFFRSFVKSSGVSQIVFTFLLIPCCLTLNFRAPPVIPNVPFLWAWNAPSEFCLGKFDEPLDMSLFSFIGSPRINATGQGVTIFYVDRLGYYPYIDSITGVTVNGGIPQKISLQDHLDKAKKDITFYMPVDNLGMAVIDWEEWRPTWARNWKPKDVYKNRSIELVQQQNVQLSLTEATEKAKQEFEKAGKDFLVETIKLGKLLRPNHLWGYYLFPDCYNHHYKKPGYNGSCFNVEIKRNDDLSWLWNESTALYPSIYLNTQQSPVAATLYVRNRVREAIRVSKIPDAKSPLPVFAYTRIVFTDQVLKFLSQDELVYTFGETVALGASGIVIWGTLSIMRSMKSCLLLDNYMETILNPYIINVTLAAKMCSQVLCQEQGVCIRKNWNSSDYLHLNPDNFAIQLEKGGKFTVRGKPTLEDLEQFSEKFYCSCYSTLSCKEKADVKDTDAVDVCIADGVCIDAFLKPPMETEEPQ
modifications: HuPH20 precursor 1-479; Mature HuPH20 36-479
With B1, the “Expressed in Media” value in data set [1] is “YES”. Moreover, in data set [2], the “pH 5.5 Activity” value stood at 2.0745 Units/ml and the “pH 7.4 Activity” value is 1.917 Units/ml.

B2: SPAM1-TEEP: C-terminally truncated human PH20, precursor 478 aa (SEQ ID NO:22), mature 443 aa (SEQ ID NO:74) (protein, listed as Homo sapiens)
chain 1: MGVLKFKHIFFRSFVKSSGVSQIVFTFLLIPCCLTLNFRAPPVIPNVPFLWAWNAPSEFCLGKFDEPLDMSLFSFIGSPRINATGQGVTIFYVDRLGYYPYIDSITGVTVNGGIPQKISLQDHLDKAKKDITFYMPVDNLGMAVIDWEEWRPTWARNWKPKDVYKNRSIELVQQQNVQLSLTEATEKAKQEFEKAGKDFLVETIKLGKLLRPNHLWGYYLFPDCYNHHYKKPGYNGSCFNVEIKRNDDLSWLWNESTALYPSIYLNTQQSPVAATLYVRNRVREAIRVSKIPDAKSPLPVFAYTRIVFTDQVLKFLSQDELVYTFGETVALGASGIVIWGTLSIMRSMKSCLLLDNYMETILNPYIINVTLAAKMCSQVLCQEQGVCIRKNWNSSDYLHLNPDNFAIQLEKGGKFTVRGKPTLEDLEQFSEKFYCSCYSTLSCKEKADVKDTDAVDVCIADGVCIDAFLKPPMETEEP
chain 2: LNFRAPPVIPNVPFLWAWNAPSEFCLGKFDEPLDMSLFSFIGSPRINATGQGVTIFYVDRLGYYPYIDSITGVTVNGGIPQKISLQDHLDKAKKDITFYMPVDNLGMAVIDWEEWRPTWARNWKPKDVYKNRSIELVQQQNVQLSLTEATEKAKQEFEKAGKDFLVETIKLGKLLRPNHLWGYYLFPDCYNHHYKKPGYNGSCFNVEIKRNDDLSWLWNESTALYPSIYLNTQQSPVAATLYVRNRVREAIRVSKIPDAKSPLPVFAYTRIVFTDQVLKFLSQDELVYTFGETVALGASGIVIWGTLSIMRSMKSCLLLDNYMETILNPYIINVTLAAKMCSQVLCQEQGVCIRKNWNSSDYLHLNPDNFAIQLEKGGKFTVRGKPTLEDLEQFSEKFYCSCYSTLSCKEKADVKDTDAVDVCIADGVCIDAFLKPPMETEEP
modifications: HuPH20 precursor 1-478; Mature HuPH20 36-478
On to B2, for which, in data set [1], the “Expressed in Media” value is given as “YES”. Besides, in data set [2], the “pH 5.5 Activity” value stood at 1.584 Units/ml and the “pH 7.4 Activity” value turned out to be 1.764 Units/ml.
